# Measurements reported in patent US20160185859A1 (Pfizer, published 2016).
# Positions count from the first letter of the chain named. Names may count otherwise. Like-named read-outs stand apart in the source and are kept apart here.
# T1: human 5T4 antigen (human, UniProt Q13641 32-355, limits assumed)
# T1 sequence: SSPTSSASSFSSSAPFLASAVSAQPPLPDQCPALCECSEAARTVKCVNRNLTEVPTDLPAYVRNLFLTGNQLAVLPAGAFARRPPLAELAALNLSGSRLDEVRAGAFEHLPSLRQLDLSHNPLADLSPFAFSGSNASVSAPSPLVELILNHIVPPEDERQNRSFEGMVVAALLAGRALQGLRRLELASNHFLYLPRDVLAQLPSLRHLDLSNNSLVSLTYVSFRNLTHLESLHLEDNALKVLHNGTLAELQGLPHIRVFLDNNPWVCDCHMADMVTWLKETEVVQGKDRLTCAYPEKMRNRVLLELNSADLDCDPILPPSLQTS
# T2: human 5T4 antigen expressed on cells (PC14PE6 cells; MDAMB435/5T4 cells) (human, UniProt Q13641 32-420)
# T2 construct: PC14PE6 are human non-small cell lung cancer cells; also called 5T4-expressing PC14PE6 cells
# T2 sequence: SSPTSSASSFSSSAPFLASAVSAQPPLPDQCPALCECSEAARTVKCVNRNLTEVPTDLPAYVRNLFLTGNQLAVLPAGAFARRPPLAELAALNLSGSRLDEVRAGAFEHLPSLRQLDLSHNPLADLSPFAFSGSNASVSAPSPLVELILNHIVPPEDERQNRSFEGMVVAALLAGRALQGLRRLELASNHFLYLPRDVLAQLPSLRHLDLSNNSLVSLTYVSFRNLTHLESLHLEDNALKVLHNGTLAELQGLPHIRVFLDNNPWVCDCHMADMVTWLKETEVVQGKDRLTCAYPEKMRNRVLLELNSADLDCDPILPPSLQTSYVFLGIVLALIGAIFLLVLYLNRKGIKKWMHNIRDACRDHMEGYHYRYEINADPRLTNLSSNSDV
# T3: cynomologous monkey 5T4 ectodomain Fc (cynomologous monkey; human, UniProt Q4R8Y9 32-355)
# T3 construct: not shown: Fc constant regions from human IgG1
# T3 chain: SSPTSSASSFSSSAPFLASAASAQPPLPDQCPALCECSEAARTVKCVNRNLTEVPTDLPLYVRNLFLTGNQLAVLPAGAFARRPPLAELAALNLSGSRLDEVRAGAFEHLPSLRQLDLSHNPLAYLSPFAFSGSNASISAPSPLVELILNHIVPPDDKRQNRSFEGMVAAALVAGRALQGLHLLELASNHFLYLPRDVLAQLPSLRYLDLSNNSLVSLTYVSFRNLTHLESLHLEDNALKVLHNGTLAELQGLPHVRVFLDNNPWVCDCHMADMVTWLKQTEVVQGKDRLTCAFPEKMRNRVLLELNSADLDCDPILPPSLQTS
# T4: human 5T4 ectodomain Fc (human, UniProt Q13641 32-355)
# T4 construct: also called human 5T4 ectodomain Fc fusion protein; Human 5T4 Ectodomain/Fc Fusion; not shown: Fc constant regions from human IgG1
# T4 sequence: T1 sequence
# B1: murine anti-5T4 antibody A2 (antibody, V domains shown)
# VH: QVQLQQSRPELVKPGASVKMSCKASGYTFTDYVISWVKQRTGQGLEWIGEIYPGSNSIYYNEKFKGRATLTADKSSSTAYMQLSSLTSEDSAVYFCAMGGNYGFDYWGQGTTLTVSS
# VL: QIVLTQSPAIMSASLGERVTLTCTASSSVNSNYLHWYQQKPGSSPKLWIYSTSNLASGVPARFSGSGSGTSYSLTISSMEAEDAATYYCHQYHRSPLTFGAGTKLELK
# notes: also called muA2
# B2: murine anti-5T4 antibody A1 (antibody, V domains shown)
# VH: QIQLVQSGPELKKPGETVKISCKASGYTFTNFGMNWVKQGPGEGLKWMGWINTNTGEPRYAEEFKGRCAFSLETTASTAYLQINNLKNEDTATYFCARDWDGAYFFDYWGQGTTLTVSS
# VL: SIVMTQTPKFLLVSAGDRVTITCKASQSVSNDVAWYQQKPGQSPKLLINFATNRYTGVPNRFTGSGYGTDFTFTISTVQAEDLALYFCQQDYSSPWTFGGGTKLEIK
# B3: chimeric A1 antibody bearing C67F mutation (antibody, V domains shown)
# VH: B2 VH with C68F
# VL: B2 VL
# notes: also called Chimeric A1 + C67F; ChiA1+C67F
# B4: huA1 VH v2.0 + huA1 VL v1.1 (antibody, V domains shown)
# VH: EVQLVESGGGLVQPGGSLRLSCAASGYTFTNFGMNWVRQAPGKGLEWVAWINTNTGEPRYAEEFKGRFTISRDNAKNSLYLQMNSLRAEDTAVYYCARDWDGAYFFDYWGQGTLVTVSS
# VL: DIVMTQSPDSLAVSLGERATINCKASQSVSNDVAWYQQKPGQPPKLLIYFATNRYTGVPDRFSGSGYGTDFTLTISSLQAEDVAVYYCQQDYSSPWTFGQGTKVEIK
# notes: also called humanized A1 VH version 2.0 + humanized A1 VL version 1.1
# B5: huA1 VH v2.0 + huA1 VL v3.1 (antibody, V domains shown)
# VH: B4 VH
# VL: EIVMTQSPATLSLSPGERATLSCKASQSVSNDVAWYQQKPGQAPRLLIYFATNRYTGIPARFSGSGYGTDFTLTISSLQPEDFAVYYCQQDYSSPWTFGQGTKVEIK
# B6: huA1 VH v2.0 + huA1 VL v2.4 (antibody, V domains shown)
# VH: B4 VH
# VL: DIQMTQSPSSLSASVGDRVTITCKASQSVSNDVAWYQQKPGKAPKLLIYFATNRYTGVPSRFSGSGYGTDFTLTISSLQPEDFATYYCQQDYSSPWTFGQGTKVEIK
# B7: chimeric A3 antibody (antibody, human IgG4, V domains shown)
# VH: EVQLVESGGGLVQPKGSLKLSCAASGFTFNTYAMNWVRQAPGKGLEWVARIRSKSNNYATYYADSVKDRFTISRDDSQSMLYLQMNNLKTEDTAMYCCVRQWDYDVRAMNYWGQGTSVTVSS
# VL: DIVMTQSHIFMSTSVGDRVSITCKASQDVDTAVAWYQQKPGQSPKLLIYWASTRLTGVPDRFTGSGSGTDFTLTISNVQSEDLADYFCQQYSSYPYTFGGGTKLEIK
# notes: also called ChiA3; ChiA3 γ4
# B8: murine anti-5T4 antibody A3 (antibody, V domains shown)
# VH: B7 VH
# VL: B7 VL
# notes: also called muA3
# B9: chimeric A3 antibody bearing C91Y mutation (antibody, V domains shown)
# VH: B7 VH with C97Y
# VL: B7 VL
# notes: also called Chimeric A3 + C91Y; ChiA3+C91Y
# Assays:
# [1] = molecular target: human 5T4 antigen expressed on cells (PC14PE6 cells; MDAMB435/5T4 cells) (human) (UniProt Q13641); assay: FACS of PC14PE6 cells; control
# human 5T4 antigen [2] = molecular target: T1, human 5T4 antigen; assay: BIACORE; human 5T4 chip saturated with first antibody H8 (competitor)
# Method: Epitope mapping of the H8, A1, A2, and A3 antibodies was also performed using BIACORE® using a CM5 chip with bound human 5T4 antigen. The chip was saturated with H8, A1, A2, or A3 antibody, and a first response was measured. The chip was then saturated with a second antibody from among the H8, A1, A2, and A3 antibodies, and a second response was measured. For multiple experiments, the chip was regenerated by dissociation of the bound antibodies in 10 mM glycine, pH 1.5, followed by a buffer wash. The percentages shown are the response units measured upon binding by a second antibody directly to the CM5 chip divided by the response units measured upon binding of the second antibody to a CM5 chip saturated with a first antibody.
# human 5T4 antigen [3] = molecular target: T1, human 5T4 antigen; assay: BIACORE (SPR); human 5T4 antigen immobilized on CM5 chip
# Method: (§1) To assess the binding specificity and affinity of the A1, A2, and A3 antibodies, BIACORE® analysis was performed using human 5T4 antigen immobilized on a CM5 chip. BIACORE® technology utilizes changes in the refractive index at the surface layer upon binding of the antibody to the 5T4 antigen immobilized on the layer. Binding is detected by surface plasmon resonance (SPR) of laser light refracting from the surface. Analysis of the signal kinetics on rate and off rate allows discrimination between non-specific and specific interactions. The H8 anti-5T4 antibody was used as a control. H8 is a hybridoma-generated monoclonal mouse IgG1 antibody described in PCT International Publication No. WO 98/55607 and in Forsberg et al. (1997) J. Biol. Chem. 272(19):[…].
# [4] = molecular target: T2, human 5T4 antigen expressed on cells …; assay: FACS of PC14PE6 cells
# human 5T4 antigen [5] = molecular target: T1, human 5T4 antigen; assay: BIACORE (SPR); human 5T4 antigen immobilized on CM5 chip; remark: listed apart in the source
# Method: as §1
# To assess the binding specificity and affinity of the chimeric and humanized H8, A1, A2, and A3 antibodies, BIACORE® analysis was performed using human 5T4 antigen immobilized on a CM5 chip. See Example 2.
# human 5T4 antigen [6] = molecular target: T1, human 5T4 antigen; assay: ELISA; inhibition of biotinylated chimeric A1 antibody binding to human 5T4
# human 5T4 antigen [7] = molecular target: T1, human 5T4 antigen; assay: BIACORE; human 5T4 chip saturated with first antibody humanized H8 (competitor); 600 s after injection of second antibody
# human 5T4 antigen [8] = molecular target: T1, human 5T4 antigen; assay: BIACORE; human 5T4 chip saturated with first antibody humanized H8 (competitor); 300 s after injection of second antibody
# human 5T4 antigen [9] = molecular target: T1, human 5T4 antigen; assay: BIACORE; human 5T4 chip saturated with first antibody humanized H8 (competitor); 75 s after injection of second antibody
# [10] = molecular target: T3, cynomologous monkey 5T4 ectodomain Fc; assay: ELISA; 5T4 ectodomain/Fc fusion protein from transiently transfected COS-1 cells; given as ED50
# Method: (§2) To assay binding of anti-5T4 antibodies, 5T4 ectodomain/Fc fusion proteins were transiently transfected into COS-1 cells, and ELISA assays were performed. Non-relevant human IgG4 and IgG1 antibodies were used as controls.
# [11] = molecular target: chimpanzee 5T4 ectodomain Fc (chimpanzee; human, UniProt P01857 99-330 = IgG part); assay: as above
# Method: as §2
# human 5T4 ectodomain Fc = molecular target: T4, human 5T4 ectodomain Fc; assay: as above
# Method: as §2
# human 5T4 antigen [12] = molecular target: T1, human 5T4 antigen; assay: BIACORE; human 5T4 chip saturated with first antibody humanized H8 (competitor); 19 s after injection of second antibody
# human 5T4 antigen [13] = molecular target: T1, human 5T4 antigen; assay: BIACORE; human 5T4 chip saturated with first antibody humanized H8 (competitor); 150 s after injection of second antibody
# human 5T4 antigen [14] = molecular target: T1, human 5T4 antigen; assay: BIACORE; human 5T4 chip saturated with first antibody humanized H8 (competitor); 37.5 s after injection of second antibody
molecule,measurement,setting,value
Control (murine IgG) (antibody),Mean Cellular Flouresence,[1],4
Control (secondary Ab) (antibody),Mean Cellular Flouresence,[1],4
B1,percentage response of second antibody following saturation with first antibody,human 5T4 antigen [2],99%
same,Ka,human 5T4 antigen [3],6.5e+07 M⁻¹
same,Kd,human 5T4 antigen [3],15 nM
same,koff,human 5T4 antigen [3],0.00087 s⁻¹
same,kon,human 5T4 antigen [3],56000 M⁻¹ s⁻¹
same,Mean Cellular Flouresence,[4],7
B2,percentage response of second antibody following saturation with first antibody,human 5T4 antigen [2],109%
same,Ka,human 5T4 antigen [3],1.6e+09 M⁻¹
same,Kd,human 5T4 antigen [3],0.64 nM
same,koff,human 5T4 antigen [3],0.00013 s⁻¹
same,kon,human 5T4 antigen [3],200000 M⁻¹ s⁻¹
same,Mean Cellular Flouresence,[4],18
B3,Ka,human 5T4 antigen [5],2.6e+09 M⁻¹
same,Kd,human 5T4 antigen [5],0.38 nM
same,koff,human 5T4 antigen [5],6.3e-05 s⁻¹
same,kon,human 5T4 antigen [5],170000 M⁻¹ s⁻¹
B4,IC50,human 5T4 antigen [6],28 nM
B5,IC50,human 5T4 antigen [6],27 nM
B6,IC50,human 5T4 antigen [6],16 nM
B7,percentage of second antibody bound following saturation with first antibody,human 5T4 antigen [7],83.6%
same,percentage of second antibody bound following saturation with first antibody,human 5T4 antigen [8],76.2%
same,percentage of second antibody bound following saturation with first antibody,human 5T4 antigen [9],58.4%
same,EC50,[10],0.23 nM
same,EC50,[11],0.2 nM
same,EC50,human 5T4 ectodomain Fc,0.2 nM
same,percentage of second antibody bound following saturation with first antibody,human 5T4 antigen [12],46.2%
same,percentage of second antibody bound following saturation with first antibody,human 5T4 antigen [13],67.5%
same,Ka,human 5T4 antigen [5],~5.4e+09 M⁻¹
same,Kd,human 5T4 antigen [5],≤ 0.18 nM
same,koff,human 5T4 antigen [5],≤ 1e-05 s⁻¹
same,kon,human 5T4 antigen [5],~54000 M⁻¹ s⁻¹
same,percentage of second antibody bound following saturation with first antibody,human 5T4 antigen [14],51.2%
B8,percentage response of second antibody following saturation with first antibody,human 5T4 antigen [2],73%
same,Ka,human 5T4 antigen [3],4.6e+08 M⁻¹
same,Kd,human 5T4 antigen [3],2.2 nM
same,koff,human 5T4 antigen [3],5.2e-05 s⁻¹
same,kon,human 5T4 antigen [3],24000 M⁻¹ s⁻¹
same,Mean Cellular Flouresence,[4],27
B9,Ka,human 5T4 antigen [5],1.7e+09 M⁻¹
same,Kd,human 5T4 antigen [5],0.59 nM
same,koff,human 5T4 antigen [5],1.6e-05 s⁻¹
same,kon,human 5T4 antigen [5],27000 M⁻¹ s⁻¹
